Assay results from the supplement of paper PMC7877785.
± gives the uncertainty stated by the source.

Test: self-splicing fitness, log relative to wild type (ln ratio); higher = more splicing; Tetrahymena group I intron in knt gene, E. coli kanamycin selection, DiMSum; sequences stand for … in CUCUCU…GGAGGGAAAAGUUAUCAGGCAUGCACCUGGUAGCUAGUCUUUAAACCAAUAGAUUGCAUCGGUUUAAAAGGCAAGACCGUCAAAUUGCGGGAAAGGGGUCAACAGCCGUUCAGUACCAAGUCUCAGGGGAAACUUUGAGAUGGCCUUGCAAAGGGUAUGGUAAUAAGCUGACGGACAUGGUCCUAACCACGCAGCCAAGUCCUAAGUCAACAGAUCUUCUGUUGAUAUGGAUGCAGUUCACAGACUAAAUGUCGGUCGGGGAAGAUGUAUUCUUCUCAUAAGAUAUAGUCGGACCUCUCCUUAAUGGGAGCUAGCGGAUGAAGUGAUGCAACACUGGAGCCGCUGGGAACUAAUUUGUAUGCGAAAGUAUAUUGAUUAGUUUUGGAGUACUCGUGGUCG
In short: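 A randomised library covering all eight P1ex-region intron nucleotides was built with the intron in the knt kanamycin-resistance gene on pET-22b(+) and held in E. coli BL21(DE3). Cells were grown overnight at 37°C or 30°C on LB agar, with or without 25 μg/mL kanamycin, plus 100 μg/mL carbenicillin, 50 μM IPTG and 0.2% rhamnose, and pooled colonies were amplicon-sequenced on an Illumina HiSeq 2500. DiMSum fitness is the error-weighted combination of wild-type-normalised replicate fold changes, kanamycin versus none.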

| Sequence | self-splicing fitness (ln) (30 °C) | self-splicing fitness (ln) (37 °C) |
| --- | --- | --- |
| GCCAAGCAAUAUUACGAGUG | -2.32 ± 0.087 | -1.72 ± 0.093 |
| GCCAAGCAAUAUUACGAUGU | -0.536 ± 0.061 | 0.0237 ± 0.084 |
| GCCAAGCAAUAUUACGAUUA | -2.86 ± 0.17 | -2.57 ± 0.15 |
| GCCAAGCAAUAUUACGCAAC | -1.98 ± 0.13 | -1.32 ± 0.16 |
| GCCAAGCAAUAUUACGGAAA | -1.46 ± 0.16 | -1.14 ± 0.13 |
| GCCAAGCAAUAUUACGGAAC | -1.73 ± 0.18 | -0.77 ± 0.18 |
| GCCAAGCAAUAUUACGGAGG | -3.49 ± 0.19 | -1.08 ± 0.16 |
| GCCAAGCAAUAUUACGGCUG | -3.81 ± 0.13 | -3.25 ± 0.19 |
| GCCAAGCAAUAUUACGGGCU | -4.88 ± 0.28 | -2.98 ± 0.23 |
| GCCAAGCAAUAUUACGGUAA | -0.713 ± 0.1 | 0.0284 ± 0.1 |
| GCCAAGCAAUAUUACGGUAU | -1.62 ± 0.069 | 0.416 ± 0.076 |
| GCCAAGCAAUAUUACGGUGA | -1.06 ± 0.06 | -0.493 ± 0.065 |
| GCCAAGCAAUAUUACGGUGU | -1.48 ± 0.049 | -0.507 ± 0.06 |
| GCCAAGCAAUAUUACGUACA | -2.65 ± 0.16 | -1.65 ± 0.11 |
| GCCAAGCAAUAUUACGUACG | -1.79 ± 0.078 | -1.56 ± 0.11 |
| GCCAAGCAAUAUUACGUCGA | -2.34 ± 0.16 | -1.29 ± 0.14 |
| GCCAAGCAAUAUUACGUUCC | -0.712 ± 0.1 | -0.674 ± 0.16 |
| GCCCAGCAAUAUUACGACGC | -0.00307 ± 0.052 | -0.0866 ± 0.067 |
| GCCCAGCAAUAUUACGACUG | -4.23 ± 0.22 | -2.44 ± 0.19 |
| GCCCAGCAAUAUUACGAGAA | -0.685 ± 0.28 | -0.511 ± 0.21 |
| GCCCAGCAAUAUUACGAUCU | -1.36 ± 0.092 | -1.47 ± 0.12 |
| GCCCAGCAAUAUUACGCAAA | -2.41 ± 0.14 | -1.3 ± 0.11 |
| GCCCAGCAAUAUUACGCCCU | -0.933 ± 0.12 | -0.685 ± 0.16 |
| GCCCAGCAAUAUUACGCCGU | -0.724 ± 0.092 | -0.492 ± 0.094 |

| Sequence | self-splicing fitness (ln) (30 °C) | self-splicing fitness (ln) (37 °C) |
| --- | --- | --- |
| GCCCAGCAAUAUUACGCCUA | -1.9 ± 0.18 | -0.261 ± 0.12 |
| GCCCAGCAAUAUUACGCGGU | -3.33 ± 0.16 | -3.02 ± 0.19 |
| GCCCAGCAAUAUUACGCUCG | -3.45 ± 0.24 | -2.34 ± 0.27 |
| GCCCAGCAAUAUUACGCUGC | – | -1.55 ± 0.41 |
| GCCCAGCAAUAUUACGCUUA | -0.569 ± 0.071 | -0.378 ± 0.08 |
| GCCCAGCAAUAUUACGCUUU | 0.177 ± 0.056 | 0.242 ± 0.074 |
| GCCCAGCAAUAUUACGGACA | -0.873 ± 0.12 | -0.931 ± 0.13 |
| GCCCAGCAAUAUUACGGAGG | -4.2 ± 0.15 | -2.51 ± 0.13 |
| GCCCAGCAAUAUUACGGGCC | -3.22 ± 0.13 | -2.58 ± 0.26 |
| GCCCAGCAAUAUUACGGGGU | -3.84 ± 0.19 | -2.77 ± 0.24 |
| GCCCAGCAAUAUUACGGUCA | -0.8 ± 0.071 | -0.326 ± 0.074 |
| GCCCAGCAAUAUUACGGUGG | -3.21 ± 0.17 | -3.59 ± 0.25 |
| GCCCAGCAAUAUUACGUACG | -3.98 ± 0.37 | -1.41 ± 0.18 |
| GCCCAGCAAUAUUACGUAGG | -2.35 ± 0.24 | -2.15 ± 0.2 |
| GCCCAGCAAUAUUACGUCGG | -3.13 ± 0.13 | -3.08 ± 0.2 |
| GCCCAGCAAUAUUACGUUAA | -1.6 ± 0.097 | -1.01 ± 0.089 |
| GCCGAGCAAUAUUACGAAGG | -3.25 ± 0.24 | -2.12 ± 0.49 |
| GCCGAGCAAUAUUACGAAUC | -1.68 ± 0.11 | -0.92 ± 0.12 |
| GCCGAGCAAUAUUACGACAA | -3.38 ± 0.34 | -2.05 ± 0.24 |
| GCCGAGCAAUAUUACGAGAG | -3.14 ± 0.3 | -0.44 ± 0.19 |
| GCCGAGCAAUAUUACGAGCC | -3.06 ± 0.14 | -2.3 ± 0.24 |
| GCCGAGCAAUAUUACGCACG | -3.74 ± 0.35 | -1.49 ± 0.36 |
| GCCGAGCAAUAUUACGCAUA | -3.39 ± 0.22 | -1.41 ± 0.16 |
| GCCGAGCAAUAUUACGCCUA | -2.44 ± 0.2 | -1.58 ± 0.16 |

| Sequence | self-splicing fitness (ln) (30 °C) | self-splicing fitness (ln) (37 °C) |
| --- | --- | --- |
| GCCGAGCAAUAUUACGCGGC | – | -2.33 ± 0.36 |
| GCCGAGCAAUAUUACGCUGC | -4.22 ± 0.36 | -2.81 ± 0.25 |
| GCCGAGCAAUAUUACGGAAG | -2.65 ± 0.23 | -0.897 ± 0.15 |
| GCCGAGCAAUAUUACGGCGG | -2.62 ± 0.21 | -1.91 ± 0.3 |
| GCCGAGCAAUAUUACGGGCC | -3.59 ± 0.32 | -1.99 ± 0.41 |
| GCCGAGCAAUAUUACGGUGA | -1.49 ± 0.088 | -0.176 ± 0.095 |
| GCCGAGCAAUAUUACGGUUC | -4.42 ± 0.3 | -1.79 ± 0.26 |
| GCCGAGCAAUAUUACGUACA | -2.85 ± 0.18 | -1.85 ± 0.17 |
| GCCGAGCAAUAUUACGUAGU | -1.34 ± 0.14 | -0.503 ± 0.16 |
| GCCGAGCAAUAUUACGUCUU | -2.71 ± 0.16 | -1.82 ± 0.14 |
| GCCGAGCAAUAUUACGUUCA | -1.03 ± 0.11 | -0.854 ± 0.14 |
| GCCUAGCAAUAUUACGAACU | -1.67 ± 0.23 | -0.772 ± 0.23 |
| GCCUAGCAAUAUUACGAGGG | -3.68 ± 0.21 | -1.6 ± 0.15 |
| GCCUAGCAAUAUUACGCCUC | 0.149 ± 0.18 | 0.175 ± 0.41 |
| GCCUAGCAAUAUUACGCUAA | -1.28 ± 0.11 | 0.00419 ± 0.12 |
| GCCUAGCAAUAUUACGGAGC | -2.44 ± 0.13 | -1.43 ± 0.1 |
| GCCUAGCAAUAUUACGGCAG | -2.72 ± 0.19 | -2.18 ± 0.42 |
| GCCUAGCAAUAUUACGGGAC | -2.4 ± 0.13 | -0.0283 ± 0.1 |
| GCCUAGCAAUAUUACGGGUG | -1.02 ± 0.056 | -0.101 ± 0.067 |
| GCCUAGCAAUAUUACGGUAA | -0.151 ± 0.079 | -0.546 ± 0.075 |
| GCCUAGCAAUAUUACGGUGG | -4.34 ± 0.27 | -2.86 ± 0.22 |
| GCCUAGCAAUAUUACGUAAG | -1.83 ± 0.088 | -0.757 ± 0.11 |
| GCCUAGCAAUAUUACGUCAA | -2.16 ± 0.22 | -1.8 ± 0.18 |
| GCCUAGCAAUAUUACGUGCG | -1.6 ± 0.075 | -0.358 ± 0.078 |

| Sequence | self-splicing fitness (ln) (30 °C) | self-splicing fitness (ln) (37 °C) |
| --- | --- | --- |
| GCCUAGCAAUAUUACGUUGU | -0.142 ± 0.04 | 0.252 ± 0.055 |
| GCGAAGCAAUAUUACGACAU | -0.422 ± 0.012 | 0.0421 ± 0.032 |
| GCGAAGCAAUAUUACGAUAC | -1.99 ± 0.17 | -0.487 ± 0.15 |
| GCGAAGCAAUAUUACGCUUC | -4.53 ± 0.46 | -2.58 ± 0.29 |
| GCGAAGCAAUAUUACGGCCG | -1.71 ± 0.29 | -1.34 ± 0.37 |
| GCGAAGCAAUAUUACGGGAC | -1.66 ± 0.16 | -2.2 ± 0.22 |
| GCGAAGCAAUAUUACGGGUG | -1.77 ± 0.085 | -1.88 ± 0.1 |
| GCGAAGCAAUAUUACGUACA | -1.9 ± 0.19 | -1.29 ± 0.14 |
| GCGAAGCAAUAUUACGUAUU | -3.7 ± 0.15 | -0.392 ± 0.093 |
| GCGAAGCAAUAUUACGUCUG | -1.68 ± 0.088 | -1.81 ± 0.15 |
| GCGAAGCAAUAUUACGUGAC | -1.51 ± 0.28 | -2.05 ± 0.29 |
| GCGAAGCAAUAUUACGUGGU | -3.09 ± 0.17 | -2.92 ± 0.2 |
| GCGCAGCAAUAUUACGACAU | -0.277 ± 0.012 | 0.253 ± 0.032 |
| GCGCAGCAAUAUUACGACGA | 0.345 ± 0.15 | -0.247 ± 0.17 |
| GCGCAGCAAUAUUACGACGC | -2.89 ± 0.33 | -1.81 ± 0.35 |
| GCGCAGCAAUAUUACGAGAA | -2.67 ± 0.21 | -0.894 ± 0.21 |
| GCGCAGCAAUAUUACGAGCG | -2.39 ± 0.15 | -2.26 ± 0.24 |
| GCGCAGCAAUAUUACGAGCU | -3.19 ± 0.28 | -1.74 ± 0.16 |
| GCGCAGCAAUAUUACGAUCU | -0.609 ± 0.055 | -0.141 ± 0.067 |
| GCGCAGCAAUAUUACGAUGU | -1.21 ± 0.077 | -0.279 ± 0.099 |
| GCGCAGCAAUAUUACGCAAU | -1.56 ± 0.09 | -0.27 ± 0.1 |
| GCGCAGCAAUAUUACGCACG | – | -1.39 ± 0.3 |
| GCGCAGCAAUAUUACGCACU | -1.97 ± 0.13 | -1.23 ± 0.12 |
| GCGCAGCAAUAUUACGCCUA | -0.46 ± 0.24 | 0.407 ± 0.16 |
